By Kd is commonly meant the free concentration of one partner at which half of the binding sites on the other are occupied at equilibrium, for simple one-to-one binding. A high value points to lower affinity. A word on the koff: it is the rate constant with which the complex falls apart. A higher koff goes with fast dissociation. Usually kon stands for a measure of how fast the partners come together.

In experiment [1] the target is T1, 人IL-23-His (human, UniProt Q9NPF7 20-189; P29460 23-328).
T1 construct: range 20-189;range 23-328; also called 重组蛋白人IL-23
T1 sequence (looked up) 1: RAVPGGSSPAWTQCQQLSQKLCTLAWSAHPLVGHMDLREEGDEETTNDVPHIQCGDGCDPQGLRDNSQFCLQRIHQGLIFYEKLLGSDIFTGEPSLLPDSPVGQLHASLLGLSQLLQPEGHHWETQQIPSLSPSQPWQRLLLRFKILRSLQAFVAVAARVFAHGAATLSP
T1 sequence (looked up) 2: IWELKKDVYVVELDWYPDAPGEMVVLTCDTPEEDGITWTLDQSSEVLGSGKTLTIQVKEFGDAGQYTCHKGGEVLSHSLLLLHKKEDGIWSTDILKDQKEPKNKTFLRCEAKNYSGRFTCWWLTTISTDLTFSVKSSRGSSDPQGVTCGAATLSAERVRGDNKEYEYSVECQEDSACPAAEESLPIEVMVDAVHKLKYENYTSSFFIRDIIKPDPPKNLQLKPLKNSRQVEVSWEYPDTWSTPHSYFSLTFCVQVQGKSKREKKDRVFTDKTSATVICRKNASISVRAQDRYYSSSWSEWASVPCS
In words: Biacore (SPR), human IL-23-His. In general terms: In SPR one partner is held on a chip, and binding of the other changes the refractive index at the surface.

Experiment [2] concerns the target T1, 人IL-23-His. The experiment is described as follows: cell-based or functional assay.

B1: 改造后抗体S5-5HWTL (antibody, V domains shown)
VH: QVQLVQSGAEVKKPGSSVKVSCKASGGTFSSYAISWVRQAPGQGLEWMGGIIPIFGTANYAQKFQGRVTITADESTSTAYMELSSLRSEDTAVYYCARDRFGLYYYYGMDVWGQGTMVTVSS
VL: QSVLTQPPSVSGAPGQRVTISCTGGSSSIGAGYDVQWYRQLPGIAPKLLIYRSTNRPSGVPARFSGSKSGASASLAITGLQAEDEADYYCVSYDSSLGGYVFGTGTKVTVL
On to B1, for which, in the experiment with 人IL-23-His [1], the Kd was 0.0625 nM, the koff came to 6.97e-06 s⁻¹ and the kon came out at 111000 M⁻¹ s⁻¹. Besides, in the experiment with 人IL-23-His [2], the “抑制IL-23激活小鼠脾细胞分泌IL-17: 剂量浓度 at which the inhibition is better than that of Guselkumab” value turned out to be 0.063 µg/mL.

B2: 改造后抗体S5-4H6L (antibody, V domains shown)
VH: QVQLVQSGAEVKKPGSSVKVSCKASGGTFSSYAISWVRQAPGQGLEWMGGIIPIFGTANYAQKFQGRVTITADESTSTAYMELSSLRSEDTAVYYCARDRFSLYYYYGMDVWGQGTMVTVSS
VL: QSVLTQPPSVSGAPGQRVTISCTGGQSSIGAGYDVQWYRQLPGIAPKLLIYRSTNRPSGVPARFSGSKSGASASLAITGLQAEDEADYYCVSYDASLGGYVFGTGTKVTVL
In the experiment with 人IL-23-His [1], B2 displayed a Kd of 0.0589 nM, a koff of 6.03e-06 s⁻¹ and a kon of 102000 M⁻¹ s⁻¹. Moreover, in the experiment with 人IL-23-His [2], the “抑制IL-23激活小鼠脾细胞分泌IL-17: 剂量浓度 at which the inhibition is better than that of Guselkumab” value turned out to be 0.056 µg/mL.

B3: 改造后抗体S5-15HWTL (antibody, V domains shown)
VH: KVQLVQSGAEVKKPGSSVKVSCKASGGTFSSYAISWVRQAPGQGLEWMGGFIPIFGTANYAQKFQGRVTITADESTSTAYMELSSLRSEDTAVYYCARDRTSLYYYYGMDVWGQGTMVTVSS
VL: QSVLTQPPSVSGAPGQRVTISCTGGSSSIGAGYDVQWYRQLPGIAPKLLIYRSTNRPSGVPARFSGSKSGASASLAITGLQAEDEADYYCVSYDSSLGGYVFGTGTKVTVL
Take B3: in the experiment with 人IL-23-His [1], the Kd came out at 0.108 nM, the koff came out at 1.18e-05 s⁻¹ and the kon is 109000 M⁻¹ s⁻¹. Also, in the experiment with 人IL-23-His [2], the “抑制IL-23激活小鼠脾细胞分泌IL-17: 剂量浓度 at which the inhibition is better than that of Guselkumab” value stood at 0.167 µg/mL.

The values are drawn from patent publication CN115785267A (SANYOU BIO INC, dated 2023).
